Measurements from patent US20250186620A1 (DUKE UNIVERSITY, published 2025).

Experiments:
[1] = biological target: Cx34.7E214K/E223K/E225K (Morone americana Cx34.7 triple mutant) (Morone americana); experiment: FETCH (flow cytometry, % dual-labelled HEK 293FT cells), homotypic
human connexin36 (Cx36) [2] = biological target: T1, human connexin36 (Cx36) (human, UniProt Q9UKL4 1-321); experiment: heterotypic FETCH
T1 construct: whole, on cells; Hemichannel expressed in HEK 293FT cells for FETCH; also called GJD2; not shown: C-terminal fluorescent protein fusion (mEmerald or RFP670 in FETCH)
T1 sequence (looked up): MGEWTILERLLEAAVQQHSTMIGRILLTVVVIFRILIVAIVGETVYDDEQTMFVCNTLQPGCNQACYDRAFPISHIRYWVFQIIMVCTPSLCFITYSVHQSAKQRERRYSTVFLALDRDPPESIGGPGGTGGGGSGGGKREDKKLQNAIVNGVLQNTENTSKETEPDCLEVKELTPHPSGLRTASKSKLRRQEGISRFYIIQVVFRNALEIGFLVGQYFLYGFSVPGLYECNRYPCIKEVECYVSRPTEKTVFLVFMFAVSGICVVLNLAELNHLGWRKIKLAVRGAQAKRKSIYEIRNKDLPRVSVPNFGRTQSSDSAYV
Description: (§1) Complete FETCH methodology is outlined in Ransey et. al. 2021 (Ransey E, et al. (2021) BioRxiv). Briefly, replica multi-well plates with HEK 293FT cells were transfected with either of the two connexin proteins being evaluated for docking. Following a transfection incubation period, experimental counterparts were combined, replated, and further incubated for about 20 hr to about 24 hrs, allowing cells to make contacts and potentially generate connexosomes. Co-plated samples were trypsinized, fixed in suspension and analyzed via flow cytometry. Flow cytometry data was processed with two selection gates prior to their fluorescence evaluation. First, putative HEK cells were identified by evaluating sample forward vs. side scatter area. Next, single cells were identified as the putative cells that maintained a linear correlation of forward scatter height to forward scatter area. Finally, the dual fluorescence (mEmerald vs. RFP670) profiles of each sample was generated, and the FETCH score was defined as the proportion of dual-labeled fluorescent cells that develop in a co-plated sample.

human connexin43 (Cx43) [3] = biological target: T2, human connexin43 (Cx43) (human, UniProt P17302 2-382); experiment: heterotypic FETCH
T2 construct: whole, on cells; Hemichannel expressed in HEK 293FT cells for FETCH; also called GJA1; not shown: C-terminal fluorescent protein fusion (mEmerald or RFP670 in FETCH)
Description: as §1

homotypic FETCH screen = biological target: the molecule itself; experiment: homotypic FETCH screen
Description: as §1
For screening analysis, five FETCH replicates were obtained for each condition (mutation). These scores were benchmarked against scores for Cx36 and Cx45 (FETCH=1.2±0.1%, n=54 replicates). To quantitatively determine whether a connexin pair docked, FETCH scores were determined for the dual fluorescence of cells under conditions where docking was not anticipated. These conditions included pairs of connexins previously established to not show docking: (i) Cx36 and Cx45 (FETCH=0.7±0.0%, n=59 replicates), (ii) homotypic Cx23 (FETCH=0.9±0.4%, n=6 previously collected replicates (Ransey E, et al. (2021) BioRxiv), and (iii) Cx36 and Cx43 (FETCH=1.2±0.2%, n=10 previously collected replicates (Ransey E, et al. (2021) BioRxiv), and under conditions for which cells were transfected with cytoplasmic fluorophores rather than tagged connexins (FETCH=4.4±0.6%, n=17 previously collected replicates (Ransey E, et al. (2021) BioRxiv).

human connexin36 (Cx36) [4] = biological target: T1, human connexin36 (Cx36); experiment: FETCH (flow cytometry, % dual-labelled HEK 293FT cells), heterotypic
Description: as §1

human connexin43 (Cx43) [5] = biological target: T2, human connexin43 (Cx43); experiment: FETCH (flow cytometry, % dual-labelled HEK 293FT cells), heterotypic, n=6
Description: as §1

homotypic FETCH = biological target: the molecule itself; experiment: homotypic FETCH
Description: as §1

[6] = biological target: Cx34.7E214K/E223K/E225K (Morone americana Cx34.7 triple mutant) (Morone americana); experiment: FETCH (flow cytometry, % dual-labelled HEK 293FT cells), heterotypic
[7] = biological target: the molecule itself; experiment: FETCH (flow cytometry, % dual-labelled HEK 293FT cells), homotypic
Description: as §1

human connexin43 (Cx43) [8] = biological target: T2, human connexin43 (Cx43); experiment: FETCH (flow cytometry, % dual-labelled HEK 293FT cells), heterotypic
Description: as §1

T2 sequence (P17302 2-382): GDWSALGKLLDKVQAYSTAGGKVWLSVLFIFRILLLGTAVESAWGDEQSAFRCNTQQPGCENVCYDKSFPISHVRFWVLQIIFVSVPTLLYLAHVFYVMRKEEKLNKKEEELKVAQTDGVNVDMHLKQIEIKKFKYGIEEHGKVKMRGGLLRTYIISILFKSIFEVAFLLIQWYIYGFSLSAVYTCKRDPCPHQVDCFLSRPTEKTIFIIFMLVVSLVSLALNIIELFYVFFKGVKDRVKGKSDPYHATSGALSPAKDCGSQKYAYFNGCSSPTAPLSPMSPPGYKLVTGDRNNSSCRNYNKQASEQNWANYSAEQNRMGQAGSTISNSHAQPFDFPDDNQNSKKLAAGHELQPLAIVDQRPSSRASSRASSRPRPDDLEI

B1: Cx34.7E214K/E223K/E225K (Morone americana Cx34.7 triple mutant) (protein, not shown: large carriers)
chain: MGEWTILERLLEAAVQQHSTMIGRILLTVVVIFRILIVAIVGETVYEDEQAMFICNTLQPGCNQACYDKAFPISHIRYWVFQIILVCTPSLCFITYSVHQSAKQKDRRYSFLYPIMERDYGGRDGARKLRNINGILVQHGGDGGGGKEEPDCLEVKEIPNAPRGLTHGKSSKVRRQEGISRFYIIQVVFRNALEIGFLAGQYFLYGFSVPGIFKCDRYPCLKKVKCYVSRPTEKTVFLVFMFAVSGICVVLNLAELNHLGWRKIKAAIRGVQARRKSICEIRKKDMAHLSQPPNLGRTQSSESAYV
- FETCH score [1]: 0.2%

B2: Cx35E224K (Morone americana Cx35 mutant E224K) (other)
chain: MGEWTILERLLEAAVQQHSTMIGRILLTVVVIFRILIVAIVGETVYDDEQTMFVCNTLQPGCNQACYDKAFPISHIRYWVFQIIMVCTPSLCFITYSVHQSAKQKERRYSTVYLTLDKDQDSLKRDESKKIKNTIVNGVLQNTENSTKEAEPDCLEVKEIPNSAMRTTKSKMRRQEGISRFYIIQVVFRNALEIGFLVGQYFLYGFNVPSVYECDRYPCIKDVKCYVSRPTEKTVFLVFMFAVSGFCVVLNLAELNHLGWRKIKTAVRGVQARRKSIYEIRNKDLPRMSVPNFGRTQSSDSAYV
notes: Extracellular loop mutant of the screening library; not shown: C-terminal fluorescent protein fusion (mEmerald or RFP670 in FETCH)
- binding result (human connexin36 (Cx36) [2]): no binding
- binding result (human connexin43 (Cx43) [3]): no binding
- binding result (homotypic FETCH screen): no binding
- FETCH score (human connexin36 (Cx36) [4]): 0.8%
- FETCH score (human connexin43 (Cx43) [5]): 0.5%

B3: Cx35E224R (Morone americana Cx35 mutant E224R) (other)
chain: MGEWTILERLLEAAVQQHSTMIGRILLTVVVIFRILIVAIVGETVYDDEQTMFVCNTLQPGCNQACYDKAFPISHIRYWVFQIIMVCTPSLCFITYSVHQSAKQKERRYSTVYLTLDKDQDSLKRDESKKIKNTIVNGVLQNTENSTKEAEPDCLEVKEIPNSAMRTTKSKMRRQEGISRFYIIQVVFRNALEIGFLVGQYFLYGFNVPSVYECDRYPCIKDVRCYVSRPTEKTVFLVFMFAVSGFCVVLNLAELNHLGWRKIKTAVRGVQARRKSIYEIRNKDLPRMSVPNFGRTQSSDSAYV
notes: as for B2
- binding result (human connexin36 (Cx36) [2]): no binding
- binding result (human connexin43 (Cx43) [3]): no binding
- binding result (homotypic FETCH screen): no binding
- FETCH score (human connexin36 (Cx36) [4]): 0.6%
- FETCH score (human connexin43 (Cx43) [5]): 0.5%

B4: Cx35K221E (designer connexin Cx35M1, Morone americana Cx35 with K221E) (other)
chain: MGEWTILERLLEAAVQQHSTMIGRILLTVVVIFRILIVAIVGETVYDDEQTMFVCNTLQPGCNQACYDKAFPISHIRYWVFQIIMVCTPSLCFITYSVHQSAKQKERRYSTVYLTLDKDQDSLKRDESKKIKNTIVNGVLQNTENSTKEAEPDCLEVKEIPNSAMRTTKSKMRRQEGISRFYIIQVVFRNALEIGFLVGQYFLYGFNVPSVYECDRYPCIEDVECYVSRPTEKTVFLVFMFAVSGFCVVLNLAELNHLGWRKIKTAVRGVQARRKSIYEIRNKDLPRMSVPNFGRTQSSDSAYV
notes: Rationally designed hemichannel; In C. elegans expressed as GFP or mCherry fusion; in mice from AAV9 as mApple or mEmerald fusion; not shown: C-terminal fluorescent protein fusion (mEmerald or RFP670 in FETCH)
- binding result (homotypic FETCH): no binding
- binding result (human connexin36 (Cx36) [2]): no binding
- binding result (human connexin43 (Cx43) [3]): no binding
- FETCH score [6]: 1.2%
- FETCH score [7]: 1.2%
- FETCH score (human connexin36 (Cx36) [4]): 1.5%
- FETCH score (human connexin43 (Cx43) [8]): 1.7%
